Results as given in publication PMC10081965 (Structure (London, England : 1993), 2023).
Blank lines part the entries; values can stand above or below the binder they belong to.

Experiments:
[1] = molecular target: UBQLN2 (UniProt Q9UHD9 1-624); assay: recruitment to biomolecular condensates in vitro
[2] = molecular target: UBQLN2 UBL (26–103) (UniProt Q9UHD9 26-103); assay: NMR titration
UBQLN2 UBL (26–103), sequence (Q9UHD9 26-103): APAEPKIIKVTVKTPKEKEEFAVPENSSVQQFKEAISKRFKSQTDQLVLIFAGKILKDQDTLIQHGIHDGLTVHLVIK

binding result [1]: binds
B1: AZUL-mEGFP (E6AP isoform II 24–87 with a C-terminal mEGFP) (domain or fragment, UniProt Q05086 24-87, looked up)
chain: MKRAAAKHLIERYYHQLTEGCGNEACTNEFCASCPTFLRMDNNAAAIKALELYKINAKLCDPHP

binding result [2]: binds
B2: UBQLN1 (514–589, F547Y) (domain or fragment, UniProt Q9UMX0 514-589, looked up)
chain: TAGTTEPGHQQFIQQMLQALAGVNPQLQNPEVRYQQQLEQLSAMGFLNREANLQALIATGGDINAAIERLLGSQPS
